tested on: Escherichia coli TOP10; assay: shrunken log2 fold change of peptide-encoding DNA abundance (4.5 h post-induction vs induction); higher = less antimicrobial activity (less host growth inhibition); settings: time post-induction: 4.5 h; library: site-saturation at positions 5, 18, 19, 20
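Note: peptides expressed intracellularly from a pBAD plasmid library in pooled LB shake-flask culture, induced with 0.3% L-arabinose, DNA abundance read by NGS, three biological replicates, DESeq2 with apeglm shrinkage.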

Sequence | shrunken log2 fold change
RRIRFRPPRLPRPRPRPQIGPRP | -0.128
RRIRMRPPRLPRPRPRPQYWPRP | -0.194
RRIRDRPPRLPRPRPRPIKRPRP | 0.000716
RRIRLRPPRLPRPRPRPAQFPRP | 0.28
RRIRWRPPRLPRPRPRPLGFPRP | 0.239
RRIRHRPPRLPRPRPRPTRLPRP | 0.189
RRIRGRPPRLPRPRPRPNEYPRP | 0.249
RRIRQRPPRLPRPRPRPRPTPRP | 0.554
RRIRPRPPRLPRPRPRPNNSPRP | -0.488
RRIRLRPPRLPRPRPRPFRWPRP | 0.202
RRIRWRPPRLPRPRPRPSVTPRP | 0.145
RRIRPRPPRLPRPRPRPREWPRP | 0.151
RRIRTRPPRLPRPRPRPNKQPRP | -0.207
RRIRQRPPRLPRPRPRPQWGPRP | -0.161
RRIRVRPPRLPRPRPRPLDFPRP | -0.147
RRIRDRPPRLPRPRPRPFAYPRP | -0.101
RRIRTRPPRLPRPRPRPDLSPRP | 0.057
RRIRTRPPRLPRPRPRPISNPRP | -0.576
RRIRFRPPRLPRPRPRPCMVPRP | 1.01
RRIRIRPPRLPRPRPRPCSYPRP | -0.176
RRIRFRPPRLPRPRPRPVAWPRP | 0.119
RRIRMRPPRLPRPRPRPRKDPRP | 0.61
RRIRCRPPRLPRPRPRPPYRPRP | -0.0439
RRIRHRPPRLPRPRPRPWRTPRP | -0.229
RRIRARPPRLPRPRPRPQWMPRP | 0.0371

Sequence | shrunken log2 fold change
RRIRHRPPRLPRPRPRPKENPRP | -0.0597
RRIRYRPPRLPRPRPRPSLSPRP | -0.623
RRIRFRPPRLPRPRPRPTTGPRP | -0.0819
RRIRWRPPRLPRPRPRPIAQPRP | 0.582
RRIRRRPPRLPRPRPRPDCKPRP | -0.176
RRIRDRPPRLPRPRPRPGILPRP | -0.197
RRIRHRPPRLPRPRPRPFQAPRP | -0.312
RRIRHRPPRLPRPRPRPNACPRP | -0.0122
RRIRSRPPRLPRPRPRPLTHPRP | -0.569
RRIRGRPPRLPRPRPRPADQPRP | 0.887
RRIRMRPPRLPRPRPRPYNTPRP | -0.862
RRIRWRPPRLPRPRPRPKPQPRP | 0.391
RRIRTRPPRLPRPRPRPHATPRP | -0.0102
RRIRCRPPRLPRPRPRPFVDPRP | -0.307
RRIRQRPPRLPRPRPRPVSYPRP | 0.0822
RRIRRRPPRLPRPRPRPGQKPRP | -0.0196
RRIRNRPPRLPRPRPRPYDQPRP | -0.37
RRIRRRPPRLPRPRPRPWARPRP | 0.222
RRIRLRPPRLPRPRPRPWWEPRP | 0.176
RRIRFRPPRLPRPRPRPYPRPRP | -0.6
RRIRTRPPRLPRPRPRPNQVPRP | 0.00376
RRIRSRPPRLPRPRPRPMQTPRP | 0.291
RRIRLRPPRLPRPRPRPTTSPRP | -0.0271
RRIRWRPPRLPRPRPRPNFMPRP | 0.0497
RRIRMRPPRLPRPRPRPDPCPRP | 0.0496

Sequence | shrunken log2 fold change
RRIRSRPPRLPRPRPRPCLLPRP | -0.284
RRIRSRPPRLPRPRPRPFRHPRP | -0.0389
RRIRFRPPRLPRPRPRPAGSPRP | -0.139
RRIRFRPPRLPRPRPRPMDLPRP | -0.161
RRIRCRPPRLPRPRPRPYEEPRP | -0.255
RRIRERPPRLPRPRPRPNHDPRP | -0.551
RRIRIRPPRLPRPRPRPHRSPRP | 0.0394
RRIRDRPPRLPRPRPRPFLIPRP | 0.0926
RRIRARPPRLPRPRPRPEITPRP | 0.784
RRIRERPPRLPRPRPRPAAEPRP | 0.0581
RRIRSRPPRLPRPRPRPQNIPRP | -0.657
RRIRDRPPRLPRPRPRPNAEPRP | 0.359
RRIRPRPPRLPRPRPRPWPIPRP | 0.054
RRIRYRPPRLPRPRPRPQSMPRP | -0.451
RRIRTRPPRLPRPRPRPGNWPRP | 0.275
RRIRGRPPRLPRPRPRPNLVPRP | 0.0862
RRIRDRPPRLPRPRPRPQYRPRP | -0.0135
RRIRIRPPRLPRPRPRPVRCPRP | 0.201
RRIRWRPPRLPRPRPRPHSCPRP | -0.0379
RRIRPRPPRLPRPRPRPWERPRP | 0.0097
RRIRLRPPRLPRPRPRPQQMPRP | -0.29
RRIRSRPPRLPRPRPRPYNHPRP | -1.54
RRIRQRPPRLPRPRPRPCLPPRP | -0.186
RRIRFRPPRLPRPRPRPWNLPRP | 0.0325
RRIRLRPPRLPRPRPRPPLGPRP | 0.409
